{"source": "patent US11142588B2", "about": "“Polypeptides which bind C-X-C chemokine receptor type 4 (CXCR4) and methods of treating or reducing the risk of fibrosis and cancer” (AdAlta Limited, priority 2015, dated 2021)", "molecules": {"B1": {"name": "ADCX-272: CXCR4 binding i-body, SEQ ID NO: 14 (protein)", "chain": "LQVDIVPSQGEISVGESKFFLCQVAGHLEVRSISWFSPNGEKLTPNQQRISVVWNDDSSSTLTIYNANIDDAGIYKCVVEQRGRSQSYFSEATVNVKIFQ"}, "B2": {"name": "AM3-114-6H: AM3-114 with 6 His tag, containing the N-terminal sequence EAEA (protein)", "chain": "EAEALQVDIVPYQGEISVGESKFFLCQVAGSLSGIRISWFSPNGEKLTPNQQRISVVWNDDSSSTLTIYNANIDDAGIYKCVVWRTGGYRHRYLVLGEATVNVKIFQ", "modifications": "left off: small tags and cut ends"}}, "key": {"[1]": {"test_system": "Ramos tumor cells", "details": "previous report, Kuhne et al 2013; cited from earlier work"}, "[2]": {"target": "CCR5 positive lipoparticles (Homo sapiens, UniProt P51681)", "sequence (P51681 whole entry)": "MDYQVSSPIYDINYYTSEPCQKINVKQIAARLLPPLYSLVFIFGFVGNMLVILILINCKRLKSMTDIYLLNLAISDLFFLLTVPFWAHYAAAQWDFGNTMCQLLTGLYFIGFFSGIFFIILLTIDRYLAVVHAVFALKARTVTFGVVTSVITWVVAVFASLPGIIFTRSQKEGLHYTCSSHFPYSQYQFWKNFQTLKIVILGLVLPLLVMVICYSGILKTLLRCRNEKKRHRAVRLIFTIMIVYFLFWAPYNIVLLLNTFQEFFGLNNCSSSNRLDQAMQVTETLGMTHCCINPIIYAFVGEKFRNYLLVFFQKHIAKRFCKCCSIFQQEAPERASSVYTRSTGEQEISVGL", "assay": "ELISA binding to CCR5 positive lipoparticles", "description": "The mutant i-body clones were also examined for binding to CCR5 positive lipoparticles (FIG. 7B)."}, "[3]": {"assay": "Binding to null lipoparticles (off-target control)", "experimental": "(FIGS. 2A-2C, 5A-5C, 11A-11D, 17A-17B) Kinetic binding analysis of selected i-bodies with immobilized CXCR4 lipoparticles were performed at 25° C. using Biacore T200 instrument (GE Healthcare, Uppsala, Sweden). Streptavidin immobilization was performed in 1×HBS-P+ running buffer (10 mM HEPES, 150 mM NaCl, 0.05% [v/v] Tween-20). Amine coupling kit (GE Healthcare) and the instructions therein were utilized for the attachment of Streptavidin (Sigma; diluted to 100 μg/mL in 10 mM sodium acetate buffer pH 4.5) in all four channels on the sensor chip surface simultaneously, resulting in >6,000 RU of Streptavidin being coupled (1 RU=1 pg protein/mm^2). All binding experiments involving lipoparticles were performed with 1×HBS/BSA (10 mM HEPES, 150 mM NaCl, 1 mg/mL BSA) as instrument running buffer. Biotinylated CXCR4 lipoparticles (Integral Molecular, Cat #LEV-101B; 3.6 U/mL as described in WO 2005/042695) were typically diluted 1 in 20 in the running buffer and immobilized onto a Streptavidin containing channel by injecting at […] for 1,800 sec resulting in captured response levels of greater than 2,500 RU. […] In order to determine binding kinetics, serial dilutions (three-fold) of i-bodies diluted in 1×HBS/BSA were injected over immobilized lipoparticles with the association and dissociation phases monitored for 60 sec and 600 sec, respectively. […]"}, "[4]": {"target": "CXCR4 (Homo sapiens, UniProt P61073)", "sequence (P61073 whole entry)": "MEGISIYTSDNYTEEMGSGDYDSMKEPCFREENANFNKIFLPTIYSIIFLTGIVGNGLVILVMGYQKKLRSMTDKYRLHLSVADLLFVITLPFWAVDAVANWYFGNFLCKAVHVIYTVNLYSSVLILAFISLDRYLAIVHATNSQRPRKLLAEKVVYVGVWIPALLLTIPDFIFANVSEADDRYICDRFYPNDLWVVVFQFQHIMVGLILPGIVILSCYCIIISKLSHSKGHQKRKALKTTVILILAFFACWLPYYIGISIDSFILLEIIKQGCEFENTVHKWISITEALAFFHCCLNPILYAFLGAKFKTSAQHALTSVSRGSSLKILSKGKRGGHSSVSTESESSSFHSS", "assay": "β-arrestin BRET assay, antagonist mode with 100 nM SDF-1", "assay_type": "cell-based", "parameters": "expressed in transfected cells; host or cells: HEK293FT", "details": "various concentrations", "in_short": "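Ten concentrations of i-body with 100 nM SDF-1 were applied to transiently transfected HEK293FT cells carrying CXCR4/Rluc8 donor and β-arrestin2/Venus acceptor. Emissions at 400-475 and 520-540 nm were read at 37 °C, and the vehicle-subtracted ratio gave the BRET signal (four independent duplicate experiments).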"}, "[5]": {"test_system": "CCL2 and CCL5 protein", "assay": "CCL2, CCL5, CXCL12 ELISA of fibroblast conditioned supernatants", "assay_type": "cell-based, human", "details": "48 hours", "description": "Various reports indicate that CXCR4 signals in conjunction with other chemokine receptors, including CCR2."}, "[6]": {"assay": "Laser induced choroidal neovascularisation model", "assay_type": "in vivo, mouse", "details": "intravitreal, 1 μl up to 20 mg/ml", "experimental": "The laser induced choroidal neovascularisation (CNV) is a well characterised and accepted model of choroidal neovascularisation (Fletcher E L et al. (2011) Prog Mol Biol Transl Sci 100:211-286). It is also a rapid method for determining the efficacy of potential treatments that target angiogenesis and fibrosis. Briefly, up to four laser spots are applied to the posterior eye using a continuous wave photocoagulation laser ([…] diode). The laser energy is high enough to create a break in Bruch's membrane. During the following 7-14 days, growth of blood vessels from the choroid into the retina occurs, and is quantified either immuocytochemically, or using fluorescein angiography.\nMice were treated as below: • Group 1 (n=10): laser both eyes-vehicle in one eye; i-body in the other • Group 2 (n=10): Laser one eye (no i-body); other eye unlasered. • The i-body drug was injected intravitreally in 1 μl volume at a concentration up to 20 mg/ml.\nThe expression of genes associated with angiogenesis and fibrosis was examined. Total RNA was isolated from the retina and RPE/choroidal samples using commercial spin columns (RNeasy, Qiagen, Valencia Calif.). A PCR gene array was used to assess the expression of 84 genes involved angiogenesis or fibrosis (Qiagen). Briefly, total RNA samples from untreated, laser treated eyes and untreated fellow eyes (n=9 each group, each 25 ng) were pooled within their respective treatment groups (3 independent experiments containing 3 pooled samples), reversed transcribed (RT2 first strand, Qiagen) and then underwent pre-amplification of the cDNA target templates (RT2 pre-AMP, Qiagen). Samples were added to a commercial mastermix (RT2 SYBR green mastermix, Qiagen) and amplified for 40 cycles (ABI 7900HT, Life Technologies, Grand Island N.Y.). Three independent arrays were performed for each treatment group. The data were analysed using delata delta Ct (ΔΔCt), expressed as fold change and regulation assessed using an unpaired t-test."}, "[7]": {"test_system": "normal and IPF lung fibroblasts", "assay": "Wound healing invasion assay of lung fibroblasts", "assay_type": "cell-based, human", "details": "130 μg/ml", "experimental": "To determine the role of CXCR4 and CXCL12 in fibroblast invasion, normal and IPF lung fibroblasts were utilized in a wound healing invasion assay. ImageLock 96 well plates (Essen Bioscience) were coated with 50 μg/ml of Basement membrane extract (BME; Trevigen) for one hour at room temperature. Normal, and fibroblasts generated from lung biopsies of idiopathic pulmonary fibrosis (IPF) patients showing slow progression or rapid progression of the disease were plated (36,000 cells per well) on the BME-coated plates and incubated overnight. […] The BME was allowed to polymerize by incubating the plate at 37° C. for 15 minutes. The plates were then inserted into an IncuCyte Zoom imaging system and images were acquired every 2 hours for approximately 50 hours. Invasion was quantified using IncuCyte software (Essen Bioscience)."}, "[8]": {"test_system": "Ramos tumor cells", "assay": "Apoptosis assay (annexin V / propidium iodide flow cytometry)", "assay_type": "cell-based, human", "details": "annexin V and propidium iodide double positive, 24 or 72 hours", "experimental": "The ability of an i-body of the invention to induce apoptosis in Ramos tumor cells (a human Burkitt's lymphoma cell line) was examined in an apoptosis assay according to the methods as described in Mishra M et al (2011) J Cell Mol Med 15(11):2462-77. I-bodies were incubated with Ramos cells and examined by flow cytometry after 24 or 72 hours. The cells were stained for annexin V and propidium iodide which are classic markers for apoptosis. Cells which were double positive were assessed to have become apoptotic."}, "[9]": {"test_system": "CCRF-CEM cells", "assay": "Immunohistochemistry staining of tumours in spleen and liver of SCID/bg mice", "details": "130 μg/ml", "experimental": "Tissues were fixed in 10% neutral buffered formalin overnight and subsequently transferred into tissue cassettes and placed in 70% ethanol. The tissues were then paraffin embedded. Slides containing 4 μm sections were deparaffinized and hydrated by incubating them in two changes of xylene for five min each, followed by two changes of 100% ethanol for 3 min each, 70% ethanol for 2 min, 50% ethanol for 2 min, and distilled water for 5 min. Antigen retrieval was performed by incubating the slides in 10 mM Citric acid solution (pH 6.0) in an 80° C. oven overnight. The slides were subsequently washed in PBS and permeabilized in 10% methanol containing 0.4% H2O2 for 30 min. […] All slides were subsequently stained with biotinylated anti-His tag antibodies (Miltenyi Biotech) and developed using an HRP-DAB cell and tissue staining kit according to the manufacturer's instructions (R&D systems)."}, "[10]": {"test_system": "ACTA2, COL1A1, COL3A1 and FN1 transcripts", "assay": "qPCR of pro-fibrotic transcripts in lung fibroblasts", "assay_type": "cell-based, human", "details": "130 μg/ml, 48 hours", "experimental": "After 48 hours, RNA was extracted using Trizol reagent and reverse transcribed into cDNA using superscript II reverse transcriptase (Life technology) as previously described (Trujillo et al Sci Transl Med 2010 2; 57ra82). Complementary DNA (cDNA) was subsequently loaded into a Taqman plate and gene expression analysis were performed using predesigned primers for COL1A1, COL3A1, FN1, and aSMA. All Taqman analysis was performed using an Applied Bio system's Viia 7 instrument (Life technology). The results were then exported, normalized to 18s RNA expression and fold change analysis were calculated using Data Assist software (Life technologies)."}}, "note": "Where two headings read alike, the source gives them in different places.", "data": [{"molecule": "MDX-1338: human anti-CXCR4 mAb", "values": [{"measurement": "induction of apoptosis in Ramos cells", "setting": "[1]", "value": "able to induce apoptosis"}]}, {"molecule": "B1", "values": [{"measurement": "binding to CCR5 positive lipoparticles", "setting": "[2]", "value": "very little binding"}, {"measurement": "binding to null lipoparticles", "setting": "[3]", "value": "very little binding"}, {"measurement": "β-arrestin activity", "setting": "[4]", "value": "some degree of inhibition"}]}, {"molecule": "B2", "values": [{"measurement": "CCL2 protein in IPF fibroblast conditioned supernatants", "setting": "[5]", "value": "markedly increased"}, {"measurement": "pathological angiogenesis / lesion size", "setting": "[6]", "value": "reduces pathological angiogenesis or lesion characteristics"}, {"measurement": "invasion of rapid-IPF (fast progressor) lung fibroblasts", "setting": "[7]", "value": "two out three"}, {"measurement": "invasion of slow-IPF lung fibroblasts", "setting": "[7]", "value": "inhibited invasion"}, {"measurement": "induction of apoptosis in Ramos cells", "setting": "[8]", "value": "strongly induce apoptosis"}, {"measurement": "staining of CCRF-CEM cells in spleen and liver", "setting": "[9]", "value": "stained CCRF-CEM cells"}, {"measurement": "ACTA2, COL1A1, COL3A1 and FN1 transcript expression in slow-IPF lung fibroblasts", "setting": "[10]", "value": "markedly reduced"}]}]}
